Laboratory results as given in the supplement of paper PMC5998384.

How the values were obtained:
[1] = tested on: HeLa Kyoto; assay: solubility in G1/S (NP-40 vs SDS abundance) (log2 ratio); higher = more soluble; details: cell cycle stage: G1/S
[2] = tested on: HeLa Kyoto; assay: melting temperature (median over replicates), in situ; higher = more thermally stable
[3] = tested on: HeLa Kyoto; assay: thermal stability score vs G1/S (z-score of summed log2 fold changes over temperatures); higher = more thermally stable than in G1/S
[4] = tested on: HeLa Kyoto; assay: solubility change mitosis vs G1/S (difference of NP-40 vs SDS log2 ratios) (log2 ratio difference); higher = more soluble in mitosis
[5] = cell cycle stage: early G1 (4.5 h after nocodazole release)
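Wherever melting temperature (median over replicates), in situ is given: HeLa Kyoto cells synchronized by double thymidine or nocodazole block, proteins quantified by TMT10plex mass spectrometry, three independent biological replicates.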
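Wherever solubility change mitosis vs G1/S (difference of NP-40 vs SDS log2 ratios) is given: synchronized HeLa Kyoto cells (double thymidine block for G1/S, nocodazole release for mitosis), protein amounts in NP-40 versus SDS lysates quantified by mass spectrometry, three biological replicates.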
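Wherever solubility in G1/S (NP-40 vs SDS abundance) is given: HeLa Kyoto cells arrested at G1/S by double thymidine block, proteins quantified by TMT10plex mass spectrometry in mild NP-40 versus SDS extracts, three biological replicates.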
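Wherever thermal stability score vs G1/S (z-score of summed log2 fold changes over temperatures) is given: synchronized HeLa Kyoto cells, proteins quantified by TMT10plex mass spectrometry, three biological replicates, mitosis taken 0.5 h after nocodazole release, G1/S directly after double thymidine block.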

Sequence | solubility in G1/S (log2) [1] | melting temperature ([2]; cell cycle stage: G1/S) [°C] | melting temperature ([2]; cell cycle stage: mitosis) [°C] | thermal stability score [3, 5] | thermal stability score ([3]; cell cycle stage: mitosis) | solubility change mitosis (log2) [4]
MWRRKHPRTSGGTRGVLSGNRGVEYGSGRGHLGTFEGRWRKLPKMPEAVGTDPSTSRKMAELEEVTLDGKPLQALRVTDLKAALEQRGLAKSGQKSALVKRLKGALMLENLQKHSTPHAAFQPNSQIGEEMSQNSFIKQYLEKQQELLRQRLEREAREAAELEEASAESEDEMIHPEGVASLLPPDFQSSLERPELELSRHSPRKSSSISEEKGDSDDEKPRKGERRSSRVRQARAAKLSEGSQPAEEEEDQETPSRNLRVRADRNLKTEEEEEEEEEEEEDDEEEEGDDEGQKSREAPILKEFKEEGEEIPRVKPEEMMDERPKTRSQEQEVLERGGRFTRSQEEARKSHLARQQQEKEMKTTSPLEEEEREIKSSQGLKEKSKSPSPPRLTEDRKKASLVALPEQTASEEETPPPLLTKEASSPPPHPQLHSEEEIEPMEGPAPAVLIQLSPPNTDADTRELLVSQHTVQLVGGLSPLSSPSDTKAESPAEKVPEESVLPLVQKSTLADYSAQKDLEPESDRSAQPLPLKIEELALAKGITEECLKQPSLEQKEGRRASHTLLPSHRLKQSADSSSSRSSSSSSSSSRSRSRSPDSSGSRSHSPLRSKQRDVAQARTHANPRGRPKMGSRSTSESRSRSRSRSRSASSNSRKSLSPGVSRDSSTSYTETKDPSSGQEVATPPVPQLQVCEPKERTSTSSSSVQARRLSQPESAEKHVTQRLQPERGSPKKCEAEEAEPPAATQPQTSETQTSHLPESERIHHTVEEKEEVTMDTSENRPENDVPEPPMPIADQVSNDDRPEGSVEDEEKKESSLPKSFKRKISVVSATKGVPAGNSDTEGGQPGRKRRWGASTATTQKKPSISITTESLKSLIPDIKPLAGQEAVVDLHADDSRISEDETERNGDDGTHDKGLKICRTVTQVVPAEGQENGQREEEEEEKEPEAEPPVPPQVSVEVALPPPAEHEVKKVTLGDTLTRRSISQQKSGVSITIDDPVRTAQVPSPPRGKISNIVHISNLVRPFTLGQLKELLGRTGTLVEEAFWIDKIKSHCFVTYSTVEEAVATRTALHGVKWPQSNPKFLCADYAEQDELDYHRGLLVDRPSETKTEEQGIPRPLHPPPPPPVQPPQHPRAEQREQERAVREQWAEREREMERRERTRSEREWDRDKVREGPRSRSRSRDRRRKERAKSKEKKSEKKEKAQEEPPAKLLDDLFRKTKAAPCIYWLPLTDSQIVQKEAERAERAKEREKRRKEQEEEEQKEREKEAERERNRQLEREKRREHSRERDRERERERERDRGDRDRDRERDRERGRERDRRDTKRHSRSRSRSTPVRDRGGRR [ACIN1] | -1.35 | 49.6 | 50.8 | -3.76 | -1.15 | 0.887
MPEAPPLLLAAVLLGLVLLVVLLLLLRHWGWGLCLIGWNEFILQPIHNLLMGDTKEQRILNHVLQHAEPGNAQSVLEAIDTYCEQKEWAMNVGDKKGKIVDAVIQEHQPSVLLELGAYCGYSAVRMARLLSPGARLITIEINPDCAAITQRMVDFAGVKDKVTLVVGASQDIIPQLKKKYDVDTLDMVFLDHWKDRYLPDTLLLEECGLLRKGTVLLADNVICPGAPDFLAHVRGSSCFECTHYQSFLEYREVVDGLEKAIYKGPGSEAGP [COMT] | -0.0917 | 52.9 | 54.2 | 3.01 | 5.26 | -0.128
MAVKVQTTKRGDPHELRNIFLQYASTEVDGERYMTPEDFVQRYLGLYNDPNSNPKIVQLLAGVADQTKDGLISYQEFLAFESVLCAPDSMFIVAFQLFDKSGNGEVTFENVKEIFGQTIIHHHIPFNWDCEFIRLHFGHNRKKHLNYTEFTQFLQELQLEHARQAFALKDKSKSGMISGLDFSDIMVTIRSHMLTPFVEENLVSAAGGSISHQVSFSYFNAFNSLLNNMELVRKIYSTLAGTRKDVEVTKEEFAQSAIRYGQVTPLEIDILYQLADLYNASGRLTLADIERIAPLAEGALPYNLAELQRQQSPGLGRPIWLQIAESAYRFTLGSVAGAVGATAVYPIDLVKTRMQNQRGSGSVVGELMYKNSFDCFKKVLRYEGFFGLYRGLIPQLIGVAPEKAIKLTVNDFVRDKFTRRDGSVPLPAEVLAGGCAGGSQVIFTNPLEIVKIRLQVAGEITTGPRVSALNVLRDLGIFGLYKGAKACFLRDIPFSAIYFPVYAHCKLLLADENGHVGGLNLLAAGAMAGVPAASLVTPADVIKTRLQVAARAGQTTYSGVIDCFRKILREEGPSAFWKGTAARVFRSSPQFGVTLVTYELLQRWFYIDFGGLKPAGSEPTPKSRIADLPPANPDHIGGYRLATATFAGIENKFGLYLPKFKSPSVAVVQPKAAVAATQ [SLC25A12] | -0.00588 | 56 | 57.1 | -0.889 | -1.22 | -0.128
MRVRIGLTLLLCAVLLSLASASSDEEGSQDESLDSKTTLTSDESVKDHTTAGRVVAGQIFLDSEESELESSIQEEEDSLKSQEGESVTEDISFLESPNPENKDYEEPKKVRKPALTAIEGTAHGEPCHFPFLFLDKEYDECTSDGREDGRLWCATTYDYKADEKWGFCETEEEAAKRRQMQEAEMMYQTGMKILNGSNKKSQKREAYRYLQKAASMNHTKALERVSYALLFGDYLPQNIQAAREMFEKLTEEGSPKGQTALGFLYASGLGVNSSQAKALVYYTFGALGGNLIAHMVLGYRYWAGIGVLQSCESALTHYRLVANHVASDISLTGGSVVQRIRLPDEVENPGMNSGMLEEDLIQYYQFLAEKGDVQAQVGLGQLHLHGGRGVEQNHQRAFDYFNLAANAGNSHAMAFLGKMYSEGSDIVPQSNETALHYFKKAADMGNPVGQSGLGMAYLYGRGVQVNYDLALKYFQKAAEQGWVDGQLQLGSMYYNGIGVKRDYKQALKYFNLASQGGHILAFYNLAQMHASGTGVMRSCHTAVELFKNVCERGRWSERLMTAYNSYKDGDYNAAVIQYLLLAEQGYEVAQSNAAFILDQREASIVGENETYPRALLHWNRAASQGYTVARIKLGDYHFYGFGTDVDYETAFIHYRLASEQQHSAQAMFNLGYMHEKGLGIKQDIHLAKRFYDMAAEASPDAQVPVFLALCKLGVVYFLQYIRETNIRDMFTQLDMDQLLGPEWDLYLMTIIALLLGTVIAYRQRQHQDMPAPRPPGPRPAPPQQEGPPEQQPPQ [SEL1L] | 0.228 | 53.9 | 52 | -0.563 | -0.64 | -0.0462
MTLQWAAVATFLYAEIGLILIFCLPFIPPQRWQKIFSFNVWGKIATFWNKAFLTIIILLIVLFLDAVREVRKYSSVHTIEKSSTSRPDAYEHTQMKLFRSQRNLYISGFSLFFWLVLRRLVTLITQLAKELSNKGVLKTQAENTNKAAKKFMEENEKLKRILKSHGKDEECVLEAENKKLVEDQEKLKTELRKTSDALSKAQNDVMEMKMQSERLSKEYDQLLKEHSELQDRLERGNKKRL [BCAP29] | -0.242 | 55.3 | 52.6 | -4.11 | -5.19 | -0.00377
MFTLAEVASLNDIQPTYRILKPWWDVFMDYLAVVMLMVAIFAGTMQLTKDQVVCLPVLPSPVNSKAHTPPGNAEVTTNIPKMEAATNQDQDGRTTNDISFGTSAVTPDIPLRATYPRTDFALPNQEAKKEKKDPTGRKTNLDFQQYVFINQMCYHLALPWYSKYFPYLALIHTIILMVSSNFWFKYPKTCSKVEHFVSILGKCFESPWTTKALSETACEDSEENKQRITGAQTLPKHVSTSSDEGSPSASTPMINKTGFKFSAEKPVIEVPSMTILDKKDGEQAKALFEKVRKFRAHVEDSDLIYKLYVVQTVIKTAKFIFILCYTANFVNAISFEHVCKPKVEHLIGYEVFECTHNMAYMLKKLLISYISIICVYGFICLYTLFWLFRIPLKEYSFEKVREESSFSDIPDVKNDFAFLLHMVDQYDQLYSKRFGVFLSEVSENKLREISLNHEWTFEKLRQHISRNAQDKQELHLFMLSGVPDAVFDLTDLDVLKLELIPEAKIPAKISQMTNLQELHLCHCPAKVEQTAFSFLRDHLRCLHVKFTDVAEIPAWVYLLKNLRELYLIGNLNSENNKMIGLESLRELRHLKILHVKSNLTKVPSNITDVAPHLTKLVIHNDGTKLLVLNSLKKMMNVAELELQNCELERIPHAIFSLSNLQELDLKSNNIRTIEEIISFQHLKRLTCLKLWHNKIVTIPPSITHVKNLESLYFSNNKLESLPVAVFSLQKLRCLDVSYNNISMIPIEIGLLQNLQHLHITGNKVDILPKQLFKCIKLRTLNLGQNCITSLPEKVGQLSQLTQLELKGNCLDRLPAQLGQCRMLKKSGLVVEDHLFDTLPLEVKEALNQDINIPFANGI [LRRC8D] | 0.141 | 53.7 | 53 | 0.491 | 0.22 | -0.126
MKLKEVDRTAMQAWSPAQNHPIYLATGTSAQQLDATFSTNASLEIFELDLSDPSLDMKSCATFSSSHRYHKLIWGPYKMDSKGDVSGVLIAGGENGNIILYDPSKIIAGDKEVVIAQNDKHTGPVRALDVNIFQTNLVASGANESEIYIWDLNNFATPMTPGAKTQPPEDISCIAWNRQVQHILASASPSGRATVWDLRKNEPIIKVSDHSNRMHCSGLAWHPDVATQMVLASEDDRLPVIQMWDLRFASSPLRVLENHARGILAIAWSMADPELLLSCGKDAKILCSNPNTGEVLYELPTNTQWCFDIQWCPRNPAVLSAASFDGRISVYSIMGGSTDGLRQKQVDKLSSSFGNLDPFGTGQPLPPLQIPQQTAQHSIVLPLKKPPKWIRRPVGASFSFGGKLVTFENVRMPSHQGAEQQQQQHHVFISQVVTEKEFLSRSDQLQQAVQSQGFINYCQKKIDASQTEFEKNVWSFLKVNFEDDSRGKYLELLGYRKEDLGKKIALALNKVDGANVALKDSDQVAQSDGEESPAAEEQLLGEHIKEEKEESEFLPSSGGTFNISVSGDIDGLITQALLTGNFESAVDLCLHDNRMADAIILAIAGGQELLARTQKKYFAKSQSKITRLITAVVMKNWKEIVESCDLKNWREALAAVLTYAKPDEFSALCDLLGTRLENEGDSLLQTQACLCYICAGNVEKLVACWTKAQDGSHPLSLQDLIEKVVILRKAVQLTQAMDTSTVGVLLAAKMSQYANLLAAQGSIAAALAFLPDNTNQPNIMQLRDRLCRAQGEPVAGHESPKIPYEKQQLPKGRPGPVAGHHQMPRVQTQQYYPHGENPPPPGFIMHGNVNPNAAGQLPTSPGHMHTQVPPYPQPQPYQPAQPYPFGTGGSAMYRPQQPVAPPTSNAYPNTPYISSASSYTGQSQLYAAQHQASSPTSSPATSFPPPPSSGASFQHGGPGAPPSSSAYALPPGTTGTLPAASELPASQRTGPQNGWNDPPALNRVPKKKKMPENFMPPVPITSPIMNPLGDPQSQMLQQQPSAPVPLSSQSSFPQPHLPGGQPFHGVQQPLGQTGMPPSFSKPNIEGAPGAPIGNTFQHVQSLPTKKITKKPIPDEHLILKTTFEDLIQRCLSSATDPQTKRKLDDASKRLEFLYDKLREQTLSPTITSGLHNIARSIETRNYSEGLTMHTHIVSTSNFSETSAFMPVLKVVLTQANKLGV [SEC31A] | 0.0843 | 48.9 | 50 | 1.55 | 4.43 | -0.144
MDCGSVGGQRTQRLPGRQRLLFLPVGLSGRPGGSETSARRCLSALSDGLGALRPRAPAARGGVSRASPLLLLLLVPSPRLAAAAPRRQLGDWERSRLGYAAPPAGRSSAWRCSPGVAAAAGALPQYHGPAPALVSCRRELSLSAGSLQLERKRRDFTSSGSRKLYFDTHALVCLLEDNGFATQQAEIIVSALVKILEANMDIVYKDMVTKMQQEITFQQVMSQIANVKKDMIILEKSEFSALRAENEKIKLELHQLKQQVMDEVIKVRTDTKLDFNLEKSRVKELYSLNEKKLLELRTEIVALHAQQDRALTQTDRKIETEVAGLKTMLESHKLDNIKYLAGSIFTCLTVALGFYRLWI [MCUR1] | 0.186 | – | 52 | -0.0232 | -0.133 | -0.0249
